Experimental data: US20210189359A1 (UNIVERSITY OF KENTUCKY RESEARCH FOUNDATION, published 2021)
Residue numbers refer to the chain shown, from its start. Names may count otherwise.

B1: CocH-LAF6 (Fc fusion)
chain: EDDIIIATKNGKVRGMNLTVFGGTVTAFLGIPYAQPPLGRLRFKKPQSLTKWSDIWNATKYANSCCQNIDQSFPGFHGSEMWNPNTDLSEDCLYLNVWIPAPKPKNATVLIWIYGGGFQTGTSSLHVYDGKFLARVERVIVVSMNYRVGALGFLALPGNPEAPGNMGLFDQQLALQWVQKNIAAFGGNPKSVTLFGESSGAASVSLHLLSPGSHSLFTRAILQSGSANAPWAVTSLYEARNRTLNLAKLTGCSRENETEIIKCLRNKDPQEILLNEAFVVPYGTPLGVNFGPTVDGDFLTDMPDILLELGQFKKTQILVGVNKDEGTWFLVGGAPGFSKDNNSIITRKEFQEGLKIFFPGVSEFGKESILFHYTDWVDDQRPENYREALGDVVGDYNFICPALEFTKKFSEWGNNAFFYYFEHRSSKLPWPEWMGVMHGYEIEFVFGLPLERRDNYTKAEEILSRSIVKRWANFAKYGNPNETQNNSTSWPVFKSTEQKYLTLNTESTRIMTKLRAQQCRFWTSFFPKVVEPKSCDKTHTCPPCPAPELLGGPSVFLFPPKPKDTLYITREPEVTCVVVDVSHEDPEVKFNWYVDGVEVHNAKTKPREEQYNSTYRVVSVLTVLHQDWLNGKEYKCKVSNKALPAPIEKTISKAKGQPREPQVYTLPPSREEMTKNQVSLTCLVKGFYPSDIAVEWESNGQPENNYKTTPPVLDSDGSFFLYSKLTVDKSRWQQGNVFSCSVMHEALHNHYTQKSLSLSPGK
notes: Direct fusion without a linker; also called CocH3-LAF6; CocH3(529)-Fc(M6)
B2: CocH-LAF7 (Fc fusion)
chain: B1 chain with P285A
notes: Direct fusion without a linker; also called CocHl-LAF7; CocH1-LAF7
B3: CocH-LAF8 (Fc fusion)
chain: B1 chain with P285Q
notes: Direct fusion without a linker; also called CocH2-LAF8; A199S/F227A/P285Q/S287G/A328W/Y332G/A530V/M567Y/S569T/T571E/D671E/L673M mutant of BChE(529)-Fc

These binders were tested against T1, human FcRn (human, UniProt P55899 24-297; P61769 21-119, limits assumed) (assay: in vitro binding to human FcRn at pH 6; method not described).
T1 construct: the construct, its source and whether b2m was present are not described; also called neonatal Fc receptor

Kd, 43 nM:
B1
B2
B3
